Here are results for 8 molecules from patent US20240092890A1 (JUNTENDO EDUCATIONAL FOUNDATION, published 2024).

As usually defined, the Kd is the constant that tells how readily two partners part at equilibrium.

Assay [1] addresses T1, Ins 5 type mutant CALR protein on UT-7/TPO CALR Ins 5 cells (UniProt P27797 18-417).
T1 sequence (looked up): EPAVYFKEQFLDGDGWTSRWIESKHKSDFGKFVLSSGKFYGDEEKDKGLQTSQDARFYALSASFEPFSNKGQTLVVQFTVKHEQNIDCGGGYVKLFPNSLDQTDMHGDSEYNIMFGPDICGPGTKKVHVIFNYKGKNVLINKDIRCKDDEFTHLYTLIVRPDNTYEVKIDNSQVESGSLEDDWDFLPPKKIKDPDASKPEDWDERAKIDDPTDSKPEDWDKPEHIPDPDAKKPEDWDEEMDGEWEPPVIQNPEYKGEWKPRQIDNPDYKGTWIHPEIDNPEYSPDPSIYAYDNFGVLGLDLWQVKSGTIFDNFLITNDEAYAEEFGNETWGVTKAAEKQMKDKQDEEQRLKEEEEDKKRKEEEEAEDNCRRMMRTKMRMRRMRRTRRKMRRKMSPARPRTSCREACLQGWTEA
In words: cell-based or functional assay.

For assay [2], the target named is T2, protein having an Fc region and a His-tag added to the N-terminus of SEQ ID NO: 1.
T2 construct: also called mutant CALR protein (antigen of the BLItz measurement); not shown: Fc region and His-tag at the N-terminus
T2 chain: RRMMRTKMRMRRM
The assay can be described thus: BLItz biolayer interferometry, Fc/His-SEQ ID NO: 1 protein on the biosensor. How it is done:
As another method, measurements were performed using the molecular interaction analysis system BLItz (ForteBio), which applies biolayer interferometry […]. Specifically, a protein having an Fc region and a His-tag added to the N-terminus of SEQ ID NO: 1 was immobilized at a concentration of 0.1 mg/mL using the Anti-Penta-HIS or ProteinA biosensor (ForteBio). Subsequently, the antibodies 1 to 114 made were prepared at a concentration of 500, 100, and 50 nM and reacted to acquire the dissociation constant.

Bounds are passed on as bounds.

B1: Antibody 58 (bispecific antibody)
chain 1: not shown
chain 2: DIQMTQSPSFVSASVGDRVTITCLASEDIYSYLAWYQQKPGKAPKLLIFAANRLQDGVPSRFSGGGSGTGFTLTISSLQPEDFATYFCLQGSKFPYTFGQGTKLEINRTVAAPSVFIFPPSDEQLKSGTASVVCLLNNFYPREAKVQWKVDNALQSGNSQESVTEQDSKDSTYSLSSTLTLSKADYEKHKVYACEVTHQGLSSPVTKSFNRGEC
Regarding B1, the “EC50 of cytotoxic activity (pM)” value in assay [1] was 1530 pM. The Kd in assay [2] is less than 1 pM.

B2: Antibody 66 (bispecific antibody)
chain 1: not shown
chain 2: DIQMTQSPSFVSASVGDRVTITCLASEDIYSYLAWYQQKPGKAPKLLIFAANRLQDGVPSRFSGGGSGTGFTLTISSLQPEDFATYFCLQGSKFPYTFGQGTKLEINRTVAAPSVFIFPPSDEQLKSGTASVVCLLNNFYPREAKVQWKVDNALQSGNSQESVTEQDSKDSTYSLSSTLTLSKADYEKHKVYACEVTHQGLSSPVTKSFNRGEC
Consider B2, for which the “EC50 of cytotoxic activity (pM)” value in assay [1] is 115 pM. The molecule further returned a Kd in assay [2] of less than 1 pM.

B3: Antibody 59 (bispecific antibody)
chain 1: not shown
chain 2: DIQMTQSPSFVSASVGDRVTITCLASEDIYSYLAWYQQKPGKAPKLLIFAANRLQDGVPSRFSGGGSGTGFTLTISSLQPEDFATYFCLQGSKFPYTFGQGTKLEINRTVAAPSVFIFPPSDEQLKSGTASVVCLLNNFYPREAKVQWKVDNALQSGNSQESVTEQDSKDSTYSLSSTLTLSKADYEKHKVYACEVTHQGLSSPVTKSFNRGEC
Consider B3, for which the “EC50 of cytotoxic activity (pM)” value in assay [1] was 469 pM. In assay [2], this molecule had a Kd of less than 1 pM.

B4: Antibody 60 (bispecific antibody)
chain 1: not shown
chain 2: DIQMTQSPSFVSASVGDRVTITCLASEDIYSYLAWYQQKPGKAPKLLIFAANRLQDGVPSRFSGGGSGTGFTLTISSLQPEDFATYFCLQGSKFPYTFGQGTKLEINRTVAAPSVFIFPPSDEQLKSGTASVVCLLNNFYPREAKVQWKVDNALQSGNSQESVTEQDSKDSTYSLSSTLTLSKADYEKHKVYACEVTHQGLSSPVTKSFNRGEC
As to B4, the “EC50 of cytotoxic activity (pM)” value in assay [1] was 77 pM. In addition, the Kd in assay [2] is less than 1 pM.

B5: Antibody 64 (bispecific antibody)
chain 1: not shown
chain 2: DIQMTQSPSFVSASVGDRVTITCLASEDIYSYLAWYQQKPGKAPKLLIFAANRLQDGVPSRFSGGGSGTGFTLTISSLQPEDFATYFCLQGSKFPYTFGQGTKLEINRTVAAPSVFIFPPSDEQLKSGTASVVCLLNNFYPREAKVQWKVDNALQSGNSQESVTEQDSKDSTYSLSSTLTLSKADYEKHKVYACEVTHQGLSSPVTKSFNRGEC
For the molecule B5, the “EC50 of cytotoxic activity (pM)” value in assay [1] amounted to 829 pM. In assay [2], this molecule showed a dissociation constant (Kd) of less than 1 pM.

B6: Antibody 63 (bispecific antibody)
chain 1: not shown
chain 2: DIQMTQSPSFVSASVGDRVTITCLASEDIYSYLAWYQQKPGKAPKLLIFAANRLQDGVPSRFSGGGSGTGFTLTISSLQPEDFATYFCLQGSKFPYTFGQGTKLEINRTVAAPSVFIFPPSDEQLKSGTASVVCLLNNFYPREAKVQWKVDNALQSGNSQESVTEQDSKDSTYSLSSTLTLSKADYEKHKVYACEVTHQGLSSPVTKSFNRGEC
As for B6, in assay [1], the “EC50 of cytotoxic activity (pM)” value was found to be 197 pM. In assay [2], this molecule came in with a Kd of 262 pM.

B7: Antibody 65 (bispecific antibody)
chain 1: not shown
chain 2: DIQMTQSPSFVSASVGDRVTITCLASEDIYSYLAWYQQKPGKAPKLLIFAANRLQDGVPSRFSGGGSGTGFTLTISSLQPEDFATYFCLQGSKFPYTFGQGTKLEINRTVAAPSVFIFPPSDEQLKSGTASVVCLLNNFYPREAKVQWKVDNALQSGNSQESVTEQDSKDSTYSLSSTLTLSKADYEKHKVYACEVTHQGLSSPVTKSFNRGEC
As to B7, in assay [1], the “EC50 of cytotoxic activity (pM)” value worked out at 397 pM. Moreover, the dissociation constant Kd in assay [2] is less than 1 pM.

B8: Antibody 61 (bispecific antibody)
chain 1: not shown
chain 2: DIQMTQSPSFVSASVGDRVTITCLASEDIYSYLAWYQQKPGKAPKLLIFAANRLQDGVPSRFSGGGSGTGFTLTISSLQPEDFATYFCLQGSKFPYTFGQGTKLEINRTVAAPSVFIFPPSDEQLKSGTASVVCLLNNFYPREAKVQWKVDNALQSGNSQESVTEQDSKDSTYSLSSTLTLSKADYEKHKVYACEVTHQGLSSPVTKSFNRGEC
Take B8: the “EC50 of cytotoxic activity (pM)” value in assay [1] came out at 9760 pM. Also, the equilibrium dissociation constant (Kd) in assay [2] was less than 1 pM.
